Test [1] has as its target endogenous human ActRIIB on cells (human) (UniProt Q13705). Put plainly: cell-based or functional assay.
Test [2] deals with T1, human Activin RIB (ALK-4)/Fc (human, UniProt P36896 24-126).
T1 construct: Bought counter-target
T1 sequence (looked up): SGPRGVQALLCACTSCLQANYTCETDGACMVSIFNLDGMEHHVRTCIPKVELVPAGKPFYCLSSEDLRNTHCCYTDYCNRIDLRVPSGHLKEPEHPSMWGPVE
The test is described as follows: specificity ELISA on coated recombinant protein. (ELISA stands for enzyme-linked immunosorbent assay.)
Description: (§1) The specificity of anti-ActRIIB Fab antibodies to human ActRIIB and crossreactivity to human ActRIIA and mouse ActRIIB is evaluated in an ELISA setting. Additionally, binding to related receptors (counter-targets: human TGF-βRII/Fc (R&D systems), mouse TGF-βRI (ALK-5)/Fc (R&D systems), human Activin RIB (ALK-4)/Fc (R&D systems)) is determined. For this 5 μg/ml (if not stated otherwise) of the recombinant proteins diluted in PBS are added to a black 96-well flat-bottom MaxiSorp™ plate and incubated over night at 4° C. for coating.
(§2) The next morning, the plates are washed with TBST and blocked with MTBST. After washing the plates several times, 5 μg/ml anti-ActRIIB Fab are added and incubated for 2.5 hrs. Subsequently antigen bound Fabs are detected by incubation with alkaline phosphatase conjugated goat-anti-human IgG Fab-specific, followed by addition of AttoPhos fluorescence substrate.

The target of the next test is T2, human TGF-βRII/Fc (human, UniProt P37173 24-159).
T2 construct: Bought counter-target
Put plainly: specificity ELISA on coated recombinant protein.

The next test deals with T3, mouse TGF-βRI (ALK-5)/Fc (mouse, UniProt Q64729 30-125, limits assumed).
T3 construct: Bought counter-target
T3 sequence (looked up): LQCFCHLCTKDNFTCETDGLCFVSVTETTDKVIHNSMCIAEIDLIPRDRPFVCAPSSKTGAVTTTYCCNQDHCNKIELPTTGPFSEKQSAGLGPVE
The test is described as follows: specificity ELISA on coated recombinant protein.

Chain of endogenous human ActRIIB on cells (human) (Q13705 19-512 E459A limits assumed): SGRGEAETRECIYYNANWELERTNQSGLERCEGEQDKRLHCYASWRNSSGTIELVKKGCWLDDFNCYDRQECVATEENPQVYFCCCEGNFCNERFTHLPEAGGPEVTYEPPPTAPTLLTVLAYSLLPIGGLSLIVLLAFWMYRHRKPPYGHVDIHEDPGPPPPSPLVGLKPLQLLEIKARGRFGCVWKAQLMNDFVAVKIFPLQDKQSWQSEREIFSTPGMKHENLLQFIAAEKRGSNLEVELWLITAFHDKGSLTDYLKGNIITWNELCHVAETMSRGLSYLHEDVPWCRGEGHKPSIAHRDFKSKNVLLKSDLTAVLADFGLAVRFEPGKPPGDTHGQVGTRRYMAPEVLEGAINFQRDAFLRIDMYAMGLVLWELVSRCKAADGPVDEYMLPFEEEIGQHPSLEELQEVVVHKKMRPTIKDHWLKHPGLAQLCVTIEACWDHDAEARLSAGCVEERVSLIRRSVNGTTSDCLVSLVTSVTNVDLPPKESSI
T2 sequence (P37173 24-159 limits assumed): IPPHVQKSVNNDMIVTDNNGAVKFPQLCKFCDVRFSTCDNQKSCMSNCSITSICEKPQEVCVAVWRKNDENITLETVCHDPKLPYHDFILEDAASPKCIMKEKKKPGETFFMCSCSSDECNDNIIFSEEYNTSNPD
Description for human TGF-βRII/Fc: as §1, §2
Description for mouse TGF-βRI (ALK-5)/Fc: as §1, §2

B1: GDF-11 (ligand, UniProt O95390 299-407, looked up)
chain: NLGLDCDEHSSESRCCRYPLTVDFEAFGWDWIIAPKRYKANYCSGQCEYMFMQKYPHTHLVQQANPRGSAGPCCTPTKMSPINMLYFNDKQQIIYGKIPGMVVDRCGCS
Regarding B1, in test [1], the Emax of ligand-induced inhibition of skeletal muscle differentiation in the presence of MOR08159 (10 µg/ml) was found to be 22.1 % control; the Emax of ligand-induced inhibition of skeletal muscle differentiation in the presence of MOR08213 (10 µg/ml) stood at 27.1 % control; the Emax of ligand-induced inhibition of skeletal muscle differentiation, no Ab was 23.2 % control; the IC50 of ligand-induced inhibition of skeletal muscle differentiation in the presence of MOR08159 (10 µg/ml) was determined as 13.3 ng/mL. Further, in test [1], the IC50 of ligand-induced inhibition of skeletal muscle differentiation in the presence of MOR08213 (10 µg/ml) was 12 ng/mL and the IC50 of ligand-induced inhibition of skeletal muscle differentiation, no Ab stood at 7 ng/mL.

B2: Activin A (ligand, UniProt P08476 311-426, looked up)
chain: GLECDGKVNICCKKQFFVSFKDIGWNDWIIAPSGYHANYCEGECPSHIAGTSGSSLSFHSTVINHYRMRGHSPFANLKSCCVPTKLRPMSMLYYDDGQNIIKKDIQNMIVEECGCS
Take B2: in test [1], the Emax of ligand-induced inhibition of skeletal muscle differentiation in the presence of MOR08159 (10 µg/ml) came out at 61.9 % control; the Emax of ligand-induced inhibition of skeletal muscle differentiation in the presence of MOR08213 (10 µg/ml) was 57.2 % control; the Emax of ligand-induced inhibition of skeletal muscle differentiation, no Ab is 37.1 % control; the IC50 of ligand-induced inhibition of skeletal muscle differentiation in the presence of MOR08159 (10 µg/ml) amounted to 34.7 ng/mL. In test [1], the IC50 of ligand-induced inhibition of skeletal muscle differentiation in the presence of MOR08213 (10 µg/ml) worked out at 41.9 ng/mL and the IC50 of ligand-induced inhibition of skeletal muscle differentiation, no Ab is 14.7 ng/mL.

B3: MOR07079 Fab (Fab, V domains shown)
VH: QVQLVQSGAEVKKPGASVKVSCKASGYTFTSSYINWVRQAPGQGLEWMGTINPVSGNTSYAQKFQGRVTMTRDTSISTAYMELSSLRSEDTAVYYCARGGWFDYWGQGTLVTVSS
VL: DIALTQPASVSGSPGQSITISCTGTSSDVGSYNYVNWYQQHPGKAPKLMIYGVSKRPSGVSNRFSGSKSGNTASLTISGLQAEDEADYYCQAWTSKMAGVFGGGTKLTVL
notes: Parental HuCAL GOLD Fab (Fab-FH format from pMORPH X9_FH vector); also called MOR7079; Fab-FH
B3: the binding result (in test [2]; with human TGF-βRII/Fc; with mouse TGF-βRI (ALK-5)/Fc) was “no binding (tested: 5 µg/ml Fab)” in each case.
